Laboratory results published in US20160194402A1 (ADURO BIOTECH HOLDINGS EUROPE B V, published 2016).

T1: human CD70 (cellularly expressed hCD70) (human, UniProt P32970 1-193)
T1 construct: whole, on cells; also called CHO-K1.hCD70; CHO-K1.CD70
T1 sequence (looked up): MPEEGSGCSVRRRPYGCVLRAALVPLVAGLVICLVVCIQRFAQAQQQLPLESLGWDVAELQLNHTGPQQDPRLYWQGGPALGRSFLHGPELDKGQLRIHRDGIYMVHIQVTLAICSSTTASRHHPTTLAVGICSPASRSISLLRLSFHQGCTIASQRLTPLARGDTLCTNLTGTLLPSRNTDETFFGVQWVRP


What was measured:
[1] = target: recombinant hCD70 (CD70(h)-muCD8 fusion Protein, Ancell, cat. no. ANC-537-030) (mouse; human); experiment: cell-based competition ELISA: biotinylated CD70(h)-muCD8 (0.5 ug/ml) binding to CHO-K1.CD27 cells, Streptavidin-HRP
[2] = target: T1, human CD70 (cellularly expressed hCD70); experiment: cell ELISA on CHO-K1.hCD70 cells, goat anti-mouse IgG-HRP
Procedure: Cell-based ELISA experiments using purified hCD70 antibodies were performed to determine binding activities of hCD70 to cellularly expressed hCD70. In this cell-ELISA, all incubation steps were followed by a wash step with PBST (PBS with 0.01% Tween 20). CHO-K1.hCD70 cells were seeded (40,000 cells/well) in tissue culture plates and incubated overnight at 37° C. The next day, culture medium was removed and cells were incubated for one hour with (dilutions of) purified antibodies at 37° C. Next, cells were washed with PBST and incubated for one hour at 37° C. with 1:1,000 goat-anti-mouse IgG-HRP (Southern Biotechnology, #1030-05). Subsequently, cells were washed 6 times with PBST and anti-hCD70 immunoreactivity was visualized with 100 μl TMB Stabilized Chromagen (Invitrogen, cat. no. SB02). Reactions were stopped with 100 μl 0.5 M H₂SO₄ and absorbances were read at 450 and 620 nm. […] Calculated EC₅₀, representing the concentration at which 50% of the total binding signal is observed are represented in Table 3 using 2F2 anti-hCD70 antibody (Pelicluster) as a reference.

[3] = target: T1, human CD70 (cellularly expressed hCD70); experiment: cell ELISA on CHO-K1.hCD70 cells, goat anti-mouse IgG-HRP (reference antibody, Example 3)
[4] = target: recombinant hCD70 (CD70(h)-muCD8 fusion Protein, Ancell, cat. no. ANC-537-030) (mouse; human); experiment: cell-based competition ELISA: biotinylated CD70(h)-muCD8 (0.5 ug/ml) binding to CHO-K1.hCD27 cells, Streptavidin-HRP (reference antibody, Example 3)
[5] = target: T2, recombinant hCD70 (CD70(h)-muCD8 fusion Protein, Ancell, cat. no. ANC-537-030) (mouse; human, UniProt P01731 28-196; P32970 39-193, biotin (position not stated; detected with Streptavidin-HRP, bound to streptavidin beads)); experiment: cell-based competition ELISA: biotinylated CD70(h)-muCD8 (0.5 ug/ml) binding to CHO-K1.hCD27 cells, Streptavidin-HRP
T2 construct: Bought fusion protein; also called CD8-hCD70; biotin-hCD8-hCD70 recombinant protein
T2 sequence (P01731 other isoform, or with tags, fused parts or gaps): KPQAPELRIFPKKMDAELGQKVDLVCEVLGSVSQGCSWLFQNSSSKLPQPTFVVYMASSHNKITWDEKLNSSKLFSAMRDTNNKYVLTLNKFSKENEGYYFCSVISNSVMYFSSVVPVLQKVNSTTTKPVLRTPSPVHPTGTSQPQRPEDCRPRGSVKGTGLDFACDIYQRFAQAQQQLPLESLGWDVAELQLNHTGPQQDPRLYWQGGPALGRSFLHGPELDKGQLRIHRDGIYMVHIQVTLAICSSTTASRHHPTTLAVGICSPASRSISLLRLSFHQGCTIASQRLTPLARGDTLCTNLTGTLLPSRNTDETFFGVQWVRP
Procedure: Blocking properties of the purified antibodies were studied using a cell-based competition assay. The CHO-K1.CD27 assay works along the following principles: CHO-K1.CD27 cells were seeded (40,000 cells/well) in a 96-well plate and incubated overnight at 37° C. After medium removal, 50 μl recombinant hCD70 (CD70(h)-muCD8 fusion Protein (Ancell, cat. no. ANC-537-030) (0.5 μg/ml) and 50 μl of different dilutions of purified anti-hCD70 antibodies were added.
After 1 hour incubation at room temperature, the wells were washed 3 times with PBST. Next, 100 μl/well Streptavidin-HRP conjugate (BD Pharmingen, cat. no. 554066) (1:5,000) was added and cells were incubated for one hour at 37° C. After 6 final washes with PBST TMB Stabilized Chromagen (Invitrogen, cat. no. SB02) (100 μl/well) was added. The reaction was stopped by the addition of 100 μl 0.5 M H₂SO₄. Absorbencies were read at […] and 620 nm. Reference antibody: anti-hCD70, clone 2F2 (Pelicluser). […] Calculated IC₅₀ values of hCD70 antibodies and the reference 2F2 anti-hCD70 antibody, which represent the concentration at which half of the inhibition is observed, are presented in Table 3.

[6] = target: recombinant hCD70 (CD70(h)-muCD8 fusion Protein, Ancell, cat. no. ANC-537-030) (mouse; human); experiment: as above

Molecule	IC50 [1]	EC50 [2]	EC50 [3]	IC50 [4]	IC50 [5]	IC50 [6]
BU69 (antibody)	0.96 nM	0.017 nM	–	–	–	–
Ki-24 (antibody)	1.5 nM	0.035 nM	–	–	–	–
2F2 (CLB70/2) (antibody)	0.4 nM	0.014 nM	0.13 nM	< 2.6 nM	–	–
hCD70.34 (antibody, IgG1, V domains shown, Mouse monoclonal purified from hybridoma supernatant) VH: QVQLKESGPGLVAPSQSLSITCTVSGFSLTSYGVSWVRQPPGKGLEWLGVIWGDGTTNYHSALISRLSISKDNSKSQVFLKLNSLQIDDTATYYCAKPGDYYGSSYWYFDVWGAGTTVTVSS VL: DVVLTQTPLSLPVNIGDQASISCKSTKSLLNSDGFTYLDWYLQKPGQSPQLLIYFVSNRFSGVPDRFSGSGSGTDFTLKISRVEADDLGVYYCFQSNYLPYTFGGGTKLEIK	–	0.21 nM	–	–	109 nM	–
hCD70.39 (antibody, part only; not given: light chain, IgG1, V domains shown, part only) VH: QGQMQQSGAELVKPGASVKLSCKTSGFTFSSNYISWLKQKPGQSLEWIAWIYAGTGGTNYNQKFTGKAQLTVDTSSSTAYIQFSSLTTEDSAIYYCARLYGYYFDYWGQGTTLTVSS	–	0.34 nM	–	–	–	> 330 nM
hCD70.21 (antibody, IgG1, V domains shown, Mouse monoclonal purified from hybridoma supernatant) VH: QVQLQQPGAELVKPGTSVKLSCKASGYNFTSYWINWVKLRPGQGLEWIGDIYPGSGSTNYNEKFKSKATLTVDTSSSTAYMQLSSLASEDSALYYCARGHYGSSYGFDYWGQGTTLTVSS VL: DIVLTQSPASLAVSLGQRATISCRASKSVSTSGYSYMHWYQQKPGQPPKLLIYLASNLESGVPARFSGSGSGTDFTLNIHPVEEEDAATYYCQHSRELPLTFGAGTKLELK	–	0.26 nM	–	–	> 330 nM	–
hCD70.36 (antibody, IgG1, V domains shown, Mouse monoclonal purified from hybridoma supernatant) VH: EVQLQQSGPELVKTGASVKISCKASGYSFTGYYMHWVKQSHGKSLEWIGYISCYNGATSYNQKFKGKATFTVDTSSSTAYMQFNSLTSEDSAVYYCARGGNWDVEYAMDYWGQGTSVTVSS VL: DIVLTQSPASLAVSLGQRATISCRASKSVSTSGYSYMHWYQQKPGQPPKLLIYLASNLESGVPARFSGSGSGTDFTLNIHPVEEEDAATYYCQHSRELPFTFGSGTKLEIK	–	0.3 nM	–	–	> 330 nM	–
hCD70.23 (antibody, IgG1, V domains shown, Mouse monoclonal purified from hybridoma supernatant) VH: QVQLQQSGPEVVRPGVSVKISCKGSGYTFTDYAMHWVKQSHAKSLEWIGVISTYNGNTNYNQKFKGKATMTVDKSSSTAYMELARLTSEDSAIYYCARDYLDYWGQGTTLTVSS VL: DIVMTQSPSSLTVTAGEKVTMSCKSSQSLLNSGNQKNYLTWYQQKPGQPPKLLIYWASTRESGVPDRFTGSGSGTDFTLTISSVQAEDLAVYYCQNDYSYPFTFGSGTKLEIK	–	0.17 nM	–	–	> 330 nM	–
hCD70.32 (antibody, IgG1, V domains shown, Mouse monoclonal purified from hybridoma supernatant) VH: QVQLQQSGDDLVKPGASVKLSCKASGYTFTSYWINWIKQRPGQGLEWIGRIAPGSGSTYYSKIFKGKATLTVDTSSSTAYIQLSSLSSEDSAVYFCSRGDYGDYWGQGTTLTVSS VL: DIVMTQSHKFMSTSVGDRVSITCKASQDVGTAVAWYQQKPGESPKLLIYWASTRHTGVPDRLTGSGSGTDFTLTISNVHSEDLADYFCQQYSGYPLTFGDGTKLEL	–	0.15 nM	–	–	76 nM	–
